# Experimental data from the domain aggregation screens of Martell et al. (2025).
# Test: soluble fraction after stress (log2 fold change); higher = more stays soluble; pooled small domains, quantitative proteomics
# Conditions: stress: pH 4
# Method in brief: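 After pH 4 stress, pooled custom libraries of small protein domains were quantified with high-throughput quantitative proteomics. Aggregation propensity is taken from the fold change in each domain's soluble amount following the acid stress. The scale is log2, where higher values mean more stayed soluble.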
row,Sequence,soluble fraction (log2)
1,HMVSPFQQQIADKVHNEIIAAKFNYDNATNENERLLAQLQAKKARELANQYGLDMSSYGADTTAERS,0.00762
2,HMSRMLTVKQREVFDLAMREGYWETPRRITLTMLASLLSVSKSTLSVQLHKIEGTVLSSFSDEVRRRS,-0.011
3,HMIPSLTITVNEHSRQITRGTSLYTLRDALYPDADVLVVNGHPADSDRHLEEGDAVVLIRRGA,-0.394
4,HMNINTEMEKVSYSLGVNIASSLKQQGWELDAKSLSDAFVDVFNGNKLLIDEKEASSILQNYQQKIANK,-1.1
5,HMDKSPMIGTAEYEGVLYWRQTKDNGATWEWITDKNGDKMPVSGPAPAVGIDKDGYWTVNGESTGVLAKD,-0.0267
6,HMKYGPSTVATLKVARLGEMGAFLDAETGDTSDDILLHKTQQTAPVKVGDEVEVFLYLDPKRRLTASMRV,-1.07
7,HMSTFKSYRGKITASSGVNIRTGAGTNYNKNGALTYNSVVTIVDEKKVSGTTWGKLADGRGWISLDYLKK,0.105
8,HMGMTDEELNREEERVVAELEAKDEEELTIYNEEDLTFEETLDLPEGSLMRDRENGMIYLKVLDIWMPY,-0.831
9,HMKYWTISDLYSKLEEDQVELGAFSEDSNKVTVLDRQGYEHVIKILSSDVPALTELFRKKKVRFAVAG,0.0959
10,HMVVTMEKIVVNDGGIRIDTYLADKLNISRSKVAKMLENNILVNNVKVKPSYKVTNNDIIEVEEYV,0.402
11,HMSFYSVVISQDGSMLVAENRNEIYSNEELLELASEVNEKTGTIGTIGSLMYYKADKGGYTLITFLDNS,-2.05
12,HMRDKSITFSEFVKLLDEGQIQKVTLTGNEILGTQKSGDKFRTYAPPQYEGLGNKLVERSVEVTAKE,0.188
13,HMTTVKDRVYEILKREIVLGKLKPGEPINIAVLSTKLNISSAPLREALNMLSRDGLVTLNPRKHAAVSE,-0.0431
14,HMDFKKKIIESWADIAETLRGLTVDSNISDWTTKQKNAYETLADKAELAGLSIADLNSILVELGYM,-0.378
15,HMIMQTTSDRINQRMRDLGLQHKDLVAATGASKGTVTNWINGVNNPTGKRLVQLAQALKTTSSWLLTGN,-0.0389
16,HMNSSTVDLAKEFLIDLLSSVEKMPASEVQEEAKNAGYSVASIRRAKDNLNIKPFKDGSAWYWKLPSIFK,-0.447
17,HMNNGAEIGAEIRSLRKARGLTLEDLAAKIGRSVGYISQVERGISPLTIPNLKAIAEVLGVGINWFFRGEA,0.228
18,HMDVRLAKVYMLPANPYLRFIEFDDGTHGKFRAKPGKFGLGSVVKVKREDGDMYTLEGNYDGKDRL,0.152
19,HMDDENKIEVMINEEKVQLTGKDKYVFVDIFNYIDMDLTRIHGNLVLKLNGENASHNSLLKSGDKIEARWE,-1.92

row,Sequence,soluble fraction (log2)
1,HMGDYDHYVVKVEDTLLNWLVTNVTTMSRNKLKDILAGQGIKVNGKITTKYDYPLTPGMKIAISKTKR,-0.351
2,HMDYNLTKNQKIVFNLLQNSGEPLKAYTILESLKREGLKSPLQVYRALDKLVELGIIHKIESQNSFI,0.0373
3,HMAPNKLQQQEVWTKALPLLQQMIMTIRQIDAAGGDSSPERELLEETAARFDETLDVERFLP,-0.774
4,HMVLSKGAKELLDFIMREGEVTTSKVVQKFGGSAQNASAKLKKLYATGLILGSKAVAESGGLEFVYKA,0.1
5,HMNHAPSLMRKIRRGLKEGRNPDDLLVNAKSISDYYYRSLSFYLLAPHFSSKSKQYKQVISLANS,-0.151
6,HMIDENILSEEIKHYIETNNYAKDDKLPSERSLASLFNVSRALVRKSLISLVDVNYLYVKDKSGYYING,-0.52
7,HMSHISLGQRYKIEGYLQINLKRTQIAKEIGLPKKTVNQEIKRNSNPQTGIYKAEEAHQLYLDRMQKKRK,0.426
8,HMTRLDLQNAFRVLPPEIQPAAVLFFLQERKQREIAKILGIGLPLVKYRIRKARELLAQFLRKEA,-0.073
9,HMGPSLDAVREQIRDLIAEEDKSAPYSDLSLVAELEKRGIHISRRTIAKYRGEMGIPNSDQRRYF,0.325
10,HMDAEEISILLEKAVLQLPEKQKMIFQLKYFEDLSYKDIQIITGGSIGGLKANYHHAVTKIEKLLS,-0.892
11,HMASLSITVNGETRRAAPGSIADLVRAIGLDPAKVAVERNGEIAPRSTLADVALADGDVLEIVHFVG,0.147
12,HMSALTDQQQRVLELVASGLVYKEVAAALSISEPTVKYHMGNILTRLHVKNRAQAIAAARQQGLL,-0.26
13,HMHFEWNELRKAINDFLAEQNMNEDKQLGPYFIQRDIVVPETGTEIDSKKFSEVFKHKVIMYLFDDAAKQ,-0.441
14,HMEWLENIKKLKKEKGLTNESLSEKSGISVGTLNKLLSGATTDPKLSTLRPLADALEVSLDELLAI,-0.187
15,HMELARLRPELDGNDIMRILGVPPGPVVGRAYTYLLELRINQGELGRERVTQLLLDWAAAEGISA,-1.8
16,HMNTISYTELIKQIDEGNVEKVEMTVGSTSVKVKLQGQEEEKKAIVPNTQAFVELIQEKTLEGNQIDLKQN,0.0768
17,HMEIVQVIAQNIQDLLDKHKISVSELSGYLGISRQTLTNYLKTTSTIDSVQLVKIADFFNIPAEYLLKDH,-0.659
18,HMTPVSQIATKDIEEKIDSLSDEYKDPFILHFKGFKYKEIADQLDIPIGTVKSRIFIARKKLIDLLPDY,-0.391
19,HMRRMAYLVGQRGLAMGDFISGTGQVRIGDTVWRAEAVEGELVRTGDTVVVEGAKMTTAIVRRVM,-0.302
